Data from the DeepSol protein solubility set.

Assay: soluble on expression in E. coli; label from the status in PepcDB or PDB records

Row | Sequence | soluble on expression in E. coli
1 | MGSDKIHHHHHHMGDKVLKIGSVHQCNCCMGSKTLHPLVSVIDLSKADLSSHTDFKFGFYTILLSECKCEAYRYGHQYYDFSDGTLLCLTPGESISMKDSDNTRPSKGWILAFHPDLICGTALGANIRDYTFFSYRPEEALHVSLREKQVILELLDKINEELQRCIDCYSQKIISKYIELLLDYCERFYERQFITRNEANKKIIERFDRLLDDHFNTIQSQSSDLPTIEECVRVLRLSPAYFNDLLEYETGKSYKEYLQFKRFEIAKEWLINTDKTLSQIAQELGFRNPQYFSRLFKKITGCLPNDFKMPN | not soluble
2 | MSLDNKGDIWYDLISAVHKSIRGSDPDAALYWAARMISAGCDPLYIARRLLAIASEDVGNADPRGMQVALAAWDCFTRVGPAEGERAIAQAIVYLACAPKSNAVYTAWKQALSDAHNLPEFEVPPHLRNAPTRLMKDLGYGEEYRYAHDEPGAYAAGECYFPPEMSGTRYYQPTPRGLETKIAEKLAYLADLNAKSPQKEGHHHHHH | soluble
3 | MSLEISFTRVALLAAALFFVGCDQKPQPAKTHATEVTVLEGKTMGTFWRASIPGIDAKRSAELKEKIQTQLDADDQLLSTYKKDSALMRFNDSQSLSPWPVSEAMADIVTTSLRIGAKTDGAMDITVGPLVNLWGFGPEQQPVQIPSQEQIDAMKAKTGLQHLTVINQSHQQYLQKDLPDLYVDLSTVGEGYAADHLARLMEQEGISRYLVSVGGALNSRGMNGEGLPWRVAIQKPTDKENAVQAVVDINGHGISTSGSYRNYYELDGKRLSHVIDPQTGRPIEHNLVSVTVIAPTALEADAWDTGLMVLGPEKAKEVVRREGLAVYMITKEGDSFKTWMSPQFKSFLVSEKEGGSHHHHHH | soluble
4 | QRISLEIMTLQPRCEDVETAEGVALTVTGVAQVKIMTEKELLAVACEQFLGKNVQDIKNVVLQTLEGHLRSILGTLTVEQIYQDRDQFAKLVREVAAPDVGRMGIEILSFTIKDVYDKVDYLSSLGKTQT | soluble
5 | MMRTWWLCERTFRARIYVMARERIPEMTINCARERNSTFTSVPTRTWLSSTISAEYVGRNHAHTTPVPANNKDTITTIAEYHCTE | not soluble
6 | MSLCCISFRVGTGPCVTSGADRLTKGPLRKSAPVSQPEANPKSRSFSGNFLNHTFRRENPMSEITSLVTAEAVKDVLRSEEVRSALKQKLRHNLEARLDAEVDAILDELLGVQAEPPTEAGDTTAESGEVQPESPVADATEPQPESVMMLEGHHHHHH | soluble
7 | APTPAQMPSPTSFSDSIKQLAAETLPKYMQQLNSLDAEMLQKNHDQFATGSGPLRGSITQCQGLMQFCGGELQAEASAILNTPVCGIPFSQWGTIGGAASAYVASGVDLTQAANEIKGLAQQMQKLLSLMHHHHHH | soluble
8 | MIPDTEQELINQYLKKISKIPLLTPEEEKELARRAKQGDKEALKKLVESNLRFVVSVAKQYIGYGLPFSELIAAGNLGLLEAAKRFDPDRGVKFISYAVWWIRQAIMQALSQQTGAVRIPLKQSHIINKISHIYGELSKKLEREPSPEEIAEELSKQMIAKELEKELGREPTEEEIEERFKKEGYKITPEEVEKYLQVCRVPLSLDAPVGENEDTFFIDFLSKHGTAEVEEKVIQEVIQKEIDDLLSKLTDKERKVIELRFGLKGNEPKTLREIGEILGLSRERVRQLETRALRKLRSLAMKRHLKDFLS | soluble
9 | MKRVRKAIIPAAGLGTRFLPATKAMPKEMLPIVDKPTIQYIVEEAVKSGIEDIIIVTGKTKRSIEDHFDNAFELEQNLLEKKKYELLEKVQASSKMVDIHYIRQKEPKGLGHAVWCARKFIGDEPFAVLLGDDIVQAEKPCLRQLIEEYDKTLSSVIGVQTVPEDETHRYGIIDPLEQEGRRYQVRNFVEKPAAGTAPSNLAIMGRYVLTPEIFMFLEQQHVGAGGEIQLTDAIQSLNEIQRVFAYDFEGKRYDVGEKLGFVQTTIEMALQHPELRDDMVTMMKKILEEQTNQES | not soluble
10 | MSTATKVGAVIITMGNRPDELRALLDSVAKQDGDRVEVVVVGNGSPVPDVPAGVRTVELPENLGIPGGRNVGIEAFGPGGTDVDILLFLDDDGLLAHHDTAELCRQAFTADPELGIISFRIADPDTGETQRRHVPRLRASDPMRSSRVTTFLGGANAVRTKVLAEVGGLPDEFFYAHEETDLAWRALDAGWMIDYRSDMVLYHPTTAPSRHAVYHRMVARNRVWLARRNLPAPLVPVYLGVWLLLTLARRPSGPALKAWFGGFKEGWTSPCGPRRPMKWRTVWRLTRLGRPPVILEHHHHHH | not soluble
11 | MGSDKIHHHHHHAKESEQKVTIDSAKHEKHTKDKEENNSANTVFFDKINDLLVASVKEFEGTVGISYLDLETGEQRSVNGQHEFYTASTIKVPLTMLVADTVASGQKKWTDLIPYNAEEDYEEGTGIIAYNIQPEYPLKTLQEYAITYSDNIAKNMLYDTLGGDAKAKREMYQRYLHKTPSIEEPQFSSEDALVILQKLYTEKATKPDYQAIYDSMKQSVFHERMETPTTQGKVAHKIGSYDEFIHDMGILETPHPFALAIFTKGPDNAKSAAFIASVTDKLWQLQVSEYPNQ | not soluble
12 | MGSDKIHHHHHHMIISASRRTDIPAFYSQWFFNRIKEGYVLVPNPFNPKMISKVSLHPAVIDCIVFWTKNPAPMIDKLDHLQDYKYYFQFTLNPYGEKLENNLPSVNKRIDIFKRLSDKIGKEKVIWRYDPILTNEEYDVSFHKEAFAQIAYGLKDHTEKCMLGFIDHYQHIRTAVGQFNIQPLRKEEIEEIAVSFRNTINEYPAIQLDTCTSKVDLRHLGIPAGLCIDKELIERITGYPLLAKKDKNQRNVCNCIESIDIGTYESCLNGCIYCYAIKGNYNSVEYNTKKHDRNSPLLIGHPAEDDVVKEREMKSLRNNQYSLF | not soluble
13 | ARAEQFTTSLLSIISNNNLLAKATSESIMGAAMKAAVLNLPIEPSLGFAYVVPYNRNYKDGNRWITVNEAQFQIGYRGLIQLAQRSGQVRNIEHGIIYEEEFLGYDKIRGQLKLTGDYVDSGVVKGYFASLELISGFYKMIFWPKEKVYEHAKKYSKTFDKKTGDFKPGTPWATEFDPMAIKTLLKELLSKYAPLSVEMQDALEADNADSTIVIPKDVTPQETNSLDDLIGTQ | not soluble
14 | MPTDEPSKRKSILPTIPTSLMLKKSNEALSDFERTFNDRVMDIFAENRRIDVEEFKKNAECFLNIIRSNKIDLNWGEGGESRYVTITRLMKILKTSPQSIKDLLPHNTVSNFVKITNYNLTIDITLLEELVRTVIHAEESYIKLLPFSENSTEISSYSLQDFVATHFIPIMIEEPENPVYYTAYAVGTIFFLLGARRRDCVYLKDLLASTLLLQLEECIHAENHCLSPPKIDVFTVAQFRTTLSEFRFLDSQRKGLLAPADLKFFRDGIFNEVFTKRIFEISITYEDGRIDFKAFVDFVTALKFRHTTASAKYHFEILDLKDDGLLDEEEIRSISSFQLQNLPDYVPEDNSVNPEVATAELRDMMRLNQNGITLEEFLANRMNSTFAGFLSNSDDYMKYERREQ | not soluble
15 | MAHHHHHHMTDMHTTLSRVILVAMLHDVADHKYDSDGTLRHRVEAFIKEERNATIETAESHAYALQTIEAVSFSAEKQRGKRWFTSVLPTEWLRVRDIVSDADKLEAIGYAGLLRCLEYTSHLLLPRGKTTEGEQHMKEGGEGRPHWSREFERQCLQNVREHFEEKLNLLPTEYIVTEPGRFLALPRRAEMVEALHQWEENGLPPLS | not soluble
16 | MGSDKIHHHHHHMTTKYQTIISNIEQDIQKQRLKKGDKLPSIRVLSKVYYCSKDTVQRALLELKYRHLIYAVPKSGYYVLGNVSMPDNVLNLSLEDYNNMAYEDFRLCLNEALSAKDKYLFHYYHKTEGLEELREALLLYLAENSVYSNKDQLLITSGTQQALYILSQMPFPNTGKTILLEKPTYHRMEAIVAQLGLPYQTISRHFNGLDLELLESLFQTGDIKFFYTISRFSHPLGLSYSTKEKEAIVRLAQRYQVYILEDDYLGDFVKLKEPPIHYYDTHHRIIYLKSFSMSVFPALRIGALVLPSGLKPHFLTQKSLIDLDTNLLMQKALALYLENGMFQKNLRFIKRYLKQRERQLALFLKQNCPDIHYQLTPTHLVIDYTTSDSYRNFTLDKSDRIIITGKKRYLSITINQQIQSKLNSLIKNTCGKSN | not soluble
17 | MNTTLFRWPVRVYYEDTDAGGVVYHASYVAFYERARTEMLRHHHFSQQALMAERVAFVVRKMTVEYYAPARLDDMLEIQTEITSMRGTSLVFTQRIVNAENTLLNEAEVLVVCVDPLKMKPRALPKSIVAEFKQ | soluble
18 | MSLTRAAVNPKPFVVPELKQWTGKDGNFTPGKDTRIVCTSQNPELLRIARMFADDYQQMFGQTLSVAQGKATSGDFVLSLSADKKLGEEGYAIKITDRVAISAPTPTGLYWSTRTLLQLAEQNQERSLPQGTIRDYPDYPLRGFMIDCGRKFIPMAYLQDLVKIMAYYKMNTLQVHLNDNGFKQYFEHNWDKTYAAFRLESETYPGLTARDGSYSKKEFIDFQKQAASNFVEIIPEIDVPAHSLALTHYKPEIGSKEYGMDHLDLFKPETYEFVDALFKEYLEGDNPVFVGKRVHIGTDEYSNAKKDVVEKFRAFTDHYIRFVEGFGKQAVVWGALSHAKGDTPVKSENVVMNAWYNGYADPATMIKDGYQLISIPDGLVYIVPKAGYYYDYLNEPYLYKEWTPAHIGKAVFDEKHPSILGGMFAIWNDHVGNGISVKDIHHRIFSPLQTLSVKMWTGAQTGIPYETFNEKRALLSEAPGVNQLARIGKKPELVYERSTVAPGSTSDYPEIGYNYTVSFDITGAKESEGTELFRSPNAVFYLSDPIRGEGHHHHHH | soluble
19 | SPSSPLRVAVVCSSNQNRSMEAHNILSKRGFSVRSFGTGTHVKLPGPAPDKPNVYDFKTTYDQMYNDLLRKDKELYTQNGILHMLDRNKRIKPRPERFQNCTDLFDLILTCEERVYDQVVEDLNSREQETCQPVHVVNVDIQDNHEEATLGAFLICELCQCVSLSSWVLLGLLIATYKNKIK | soluble
20 | MSLTATAPCPYACGLCSLHENHSALVNIVVTNRCDLSCFYCFFYAERAGYIYEPSIEQIKFMVRQVARQRQGSDVHVNIQITGGEPTVREDLVDVVKAIREAGAHYIQLNTNGINVARRYLDNPPGAIDYVRSLREAGVSVVYMSFDGVTPKVNWKNHYEAPFALKAFQEGGLDNVVLVPTVIRTINDHEVGDIIRFAGKHIDVVRGVNFQPVSLTGMMRKHERERMRITIPDVIKRIEEQTDGQIPMDAWYPVPVVAKFVKAIDALTGKLYDTLSNHPACGSATYVFALERDRYGVPRRFLPITEVIDVEGFIEFLDEERIKLEHNSGRLSRLKVAAEIVWRARRFVDFDREGHHHHHH | not soluble
21 | MGHHHHHHSHRGAGRVSRWPPPHWLEAWRVSPRPLSPLSPATFGRGFIAVAVIPGLWARGRGCSSDRLPRPAGPARRQFQAASLLTRGWGRAWPWKQILKELDECYERFSRETDGAQK | not soluble
22 | AFTGKFEMESEKNYDEFMKLLGISSDVIEKARNFKIVTEVQQDGQDFTWSQHYSGGHTMTNKFTVGKESNIQTMGGKTFKATVQMEGGKLVVNFPNYHQTSEIVGDKLVEVSTIGGVTYERVSKRLA | soluble
23 | MADIDNKEQSELDQDLEDVEEVEEEETGEETKIKARQLTVQMMQNPQILAALQERLDGLVDTPTGYIESLPKVVKRRVNALKNLQVKCAQIEAKFYEEVHDLERKYAVLYQPLFDKRFEIINAIYEPTEEECEWKPDEEDEVSEELKEKAKIEDEKKDEEKEDPKGIPEFWLTVFKNVDLLSDMVQEHDEPILKHLKDIKVKFSDAGQPMSFVLEFHFEPNDYFTNEVLTKTYRMRSEPDDSDPFSFDGPEIMGCTGCQIDWKKGKNVTLKTIKKKQKHKGRGTVRTVTKTVSNDSFFNFFAPPEVPENGDLDDDAEAILAADFEIGHFLRERIIPRSVLYFTGEAIEDDDDDYDEEGEEADEGYQLFEEVKSCSKLFQRWLQ | soluble
